Test results taken from the RNAGym collection of RNA variant scans (doi:10.1093/nar/gkz1192).

B1: CPEB3 Ribozyme (parent)
chain: UAACAGGGGGCCACAGCAGAAGCGUUCACGUCGCAGCCCCUGUCAGAUUCUGGUGAAUCUGCGAAUUCUGCUGUAUAUCUC

Variants of: B1
Assay: self-cleavage, relative activity (ratio to wild type); higher = more cleavage; in vitro, sequencing
Procedure, shortened: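 After error-prone PCR and barcoding, CPEB3 ribozyme mutant libraries were transcribed with T7 RNA polymerase at 37°C for 5 hours, then given 15 min with DNase I before an EDTA stop, and they cleaved during both steps. Reverse transcription with template switching preceded Illumina sequencing. Relative activity divides a variant's cleaved/total read fraction by the unmutated ribozyme's. At least 5 reads were required per variant, and three batches were averaged.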

Row | Variant | self-cleavage
1 | A5U U60A | 0.76
2 | A5U U60C | 0.58
3 | A5U U76C | 1.13
4 | A5U U76A | 1.12
5 | A5U U31A | 0.5
6 | A5U U31C | 0.92
7 | G6A | 0.4
8 | A5G C39A | 0.39
9 | A5G C39U | 0.67
10 | A5G C79U | 0.92
11 | A5G C79A | 1.01
12 | A5U G6A | 0.52
13 | A5G U58A | 0.24
14 | A5G U58C | 0.43
15 | A5G U49C | 0.31
16 | A5G U49A | 0.53
17 | A5G A57U | 1.04
18 | A5G A57C | 0.28
19 | A5G A57G | 0.64
20 | A5U A18U | 0.34
21 | A5U A18G | 0.87
22 | A5U G10A | 0.12
23 | A5U G10C | 0.5
24 | A5G U41A | 0.32

Row | Variant | self-cleavage
25 | A5G U41C | 0.5
26 | A5G U41G | 0.28
27 | A5U U58C | 0.61
28 | A5U U58A | 0.53
29 | A5G G53A | 0.88
30 | A5G G53U | 1.03
31 | A5G G53C | 0.8
32 | A5U G7C | 0.48
33 | A5U G7U | 0.35
34 | A5U G7A | 0.22
35 | A5G A47G | 0.65
36 | A5G A47C | 0.59
37 | A5G A47U | 0.34
38 | A5G G19C | 0.41
39 | A5G G19U | 0.45
40 | A5G G19A | 0.53
41 | A5G G55A | 0.37
42 | A5G G55C | 0.65
43 | A5G G55U | 0.26
44 | G6A A47G | 0.46
45 | G6A A47U | 0.32
46 | A5U U51A | 0.96
47 | A5U U51G | 1.16
48 | A5U U51C | 1.13

Row | Variant | self-cleavage
49 | A5U C11G | 0.5
50 | A5U G22A | 0.28
51 | A5U A20C | 0.49
52 | A5U A20G | 0.91
53 | A5G G10U | 0.39
54 | A5U A45U | 0.54
55 | A5U A45G | 1.02
56 | A5G C62U | 0.35
57 | A5G C62G | 0.14
58 | A5G C62A | 0.22
59 | A5G C44U | 0.43
60 | A5U G8A | 0.12
61 | A5U G8C | 0.1
62 | G6A A18C | 0.44
63 | G6A A18U | 0.23
64 | G6A A18G | 0.31
65 | A5U C29U | 0.54
66 | A5U C29A | 0.36
67 | A5G C34G | 0.52
68 | A5G C59A | 0.2
69 | A5G C59U | 0.65
70 | A5U C37U | 0.82
71 | A5G G22C | 0.34
72 | A5G G22A | 0.24

Row | Variant | self-cleavage
73 | A5U U54C | 1.09
74 | A5U U54A | 1.1
75 | A5U A57G | 0.97
76 | A5U A57U | 0.67
77 | A5U A57C | 0.7
78 | A5G U80A | 0.79
79 | A5G U80C | 0.66
80 | A5G C17U | 0.47
81 | A5G C17A | 0.3
82 | A5G U51C | 0.68
83 | A5G U51A | 0.63
84 | A5G U51G | 0.68
85 | G6A A13U | 0.28
86 | G6A A13C | 0.4
87 | G6A A13G | 0.35
88 | A5U A75G | 0.95
89 | A5U G63A | 1.06
90 | A5G A45G | 0.63
91 | A5G A45C | 0.42
92 | A5G A45U | 0.36
93 | A5U U43A | 1.24
94 | A5U U43C | 0.76
95 | A5G C40A | 0.26
96 | A5G C40U | 0.27

Row | Variant | self-cleavage
97 | A5G C40G | 0.22
98 | A5G G9A | 0.39
99 | G6A A20G | 0.48
100 | G6A A20U | 0.07
101 | A5U G61U | 0.72
102 | A5U G36A | 0.39
103 | A5G U43C | 0.43
104 | A5G U43G | 0.3
105 | A5G U43A | 0.84
106 | A5G A64U | 0.35
107 | A5G A64G | 0.58
108 | G6A A21G | 0.49
109 | G6A A21U | 0.31
110 | A5G U60G | 0.35
111 | A5G U60C | 0.36
112 | A5G U60A | 0.31
113 | A5U G52U | 1.15
114 | A5U G52A | 1.1
115 | A5G U78G | 0.91
116 | A5G U78A | 0.88
117 | A5G U78C | 0.63
118 | A5G U25G | 0.55
119 | A5G U25A | 0.42
120 | A5G U25C | 0.39

Row | Variant | self-cleavage
121 | A5G G36A | 0.29
122 | A5G G36U | 0.72
123 | A5G C11G | 0.5
124 | A5U A47G | 0.95
125 | A5U A64C | 0.32
126 | A5U A64G | 1.03
127 | A5U A64U | 0.44
128 | A5U U25A | 0.26
129 | A5U U25C | 0.41
130 | G6A A28C | 0.15
131 | G6A A28G | 0.29
132 | G6A A28U | 0.4
133 | A5G C27A | 0.44
134 | A5G C27U | 0.13
135 | A5U C14U | 0.88
136 | A5U C14A | 1.19
137 | A5U A13U | 1.16
138 | A5U A13C | 1.15
139 | A5U A13G | 1.01
140 | A5U G24U | 0.43
141 | A5U G24A | 0.4
142 | A5U G24C | 0.36
143 | A5U C34U | 0.55
144 | A5U C34A | 0.65

Row | Variant | self-cleavage
145 | A5U A56G | 0.81
146 | A5U A56U | 0.9
147 | A5U A56C | 0.91
148 | A5U A35U | 0.63
149 | A5U A35G | 1.19
150 | A5U A35C | 1.2
151 | A5G U67C | 0.34
152 | A5G U67A | 0.39
153 | A5G G42C | 0.49
154 | A5G G42A | 0.4
155 | A5G C38A | 0.44
156 | A5G C38G | 0.37
157 | A5G C38U | 0.46
158 | A5U | 1.04
159 | A5U U78A | 1.15
160 | A5U U78C | 0.93
161 | A5G C68A | 0.46
162 | A5U G19A | 0.72
163 | A5U U41A | 0.33
164 | A5U U41C | 0.98
165 | A5G U76A | 0.85
166 | A5G U76G | 0.6
167 | A5G U76C | 0.76
